Measurements reported in the nanobody polyreactivity screen of Harvey et al. (2022).

Assay: yeast display, Sf9 membrane polyspecificity reagent, FACS + sequencing; frameworks hold sequencing errors
Outline: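 Galactose induction of a Saccharomyces cerevisiae BJ5465 synthetic nanobody display library ran 36–48 hours. The cells were then stained for 1 hour at 4 °C with 10% biotinylated, detergent-solubilized Sf9 membrane reagent, pulled down on streptavidin microbeads and FACS-sorted into low and high (top ~1%) gates on expression and reagent-binding fluorescence. Labels for polyreactivity follow the gate of origin.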

Sequence | polyreactivity (PSR sort gate)
QVQLVDTGAGLVQAGGSLRISCAPSGNIFVDNVMGWYRQAPGKERELVAAIDYSGGSTYYADSVKGRFTISRDNAKNNVYLQMNSLKPEDTAVYYCNARTYYGFGMDFWGQGTQVTVSS | low polyreactivity
QVQLVDTGGGFVQAGGSLRLSCAASGRTFPYYAMGLYRQAPGKERELVAAMTRGVRTQYADSVKGRFTISRDNAKNTVYLQMNSLKPEDTAVYYCAREDWGSYSDMDSWGQGTQVTVSS | low polyreactivity
QVQLVEAGGGLGQAGGSLRLSCAASGFTFYRYARGWYRQAPGKERELVAAISSSGGRTYYADSVKGRFTISRDTAKNTVYLQMNSLKPEDTAVYYCNVVRLQSYYGPFDYWGQGTQVTVSS | high polyreactivity
QVQLVEAGGGLVQAGGRLRLSCAASGIIIVPYTMGWYRQAPGKERELVAAISRSGGRTYYADSVKGRFTISRDNAKNTVYLQMNSLKPEDTAVYDCNKRSLYYGYYLYYRMDYWGQGTQVTVSS | high polyreactivity
QVQLVEAGGGLVQAGGSLRFSCAASGYIVRSYAMGWYRQAPGKERELVAAITRSGGSTYYADSVKGRFSISRDNAQNSVYLQMNSLKPEDTAVYYCTAKRFRTGFDYWGQGTQVTVSS | low polyreactivity
QVQLVEAGGGLVQAGGSLRLSCAASGITCRNDAIGWYRQAAGKERELVADITTGGSTYADSVKGRFTISRDNAKNTVYLQLISLKPEDTAVYYFAADRDFRTPRLYYWGQGTQVTVSS | low polyreactivity
QVQLVEAGGGLVQAGGSLRLSCAASGLTFTVYAMGWYRQAPGKERELVAAITGSGTSTYYADSVKGRFTISRDNAKNTVYLQMNSLKPEDTAVYDCAADLYYYGFFWDFGDGFDYWGQGTQVTVSS | low polyreactivity
QVQLVEAGGGLVQAGGSLRLSCAASGQIFRKNARGWYSQAPGKERELVAAINSGGSTKYADSVKGRFTISRDNAKNTVYLQMNSLKPEDTAVDYCAARGRYGVPPGRAHDNWRQGTQVTVSS | high polyreactivity
QVQLVEAGGGLVQAGGSLRLSCAASGRIFYSNAMGWCRQAPGKERELVAAITWRGGSTYYADSVKGRFTISRDNAKNTVYLQMNSLKPEDTAVYYCATDGYDDTHYYYLGQGTQVTVSS | low polyreactivity
QVQLVEAGGGLVQAGGSLRLSCAASGYTFGPNAMGWYRQAPGKEREFVAAISWSGTSTYYADYVKGRFTISRDNAKNTDYLQMNSLKPEDTAVYYCAARSYRYVSRREYWGQGTLVTVSS | high polyreactivity
QVQLVEAGGGLVQAGGSLRLSCASSGRIFNLYAMALYRQAPGKERELVAAINWSGDRTSYADSVKGRFTISRDNAKNTVYLQMNSLKPEDTAVYYCAAEYGLGDDTAYGYWGQGTQVTVSS | low polyreactivity
QVQLVEAGGGLVQAGGSLRLSGAASGSIFDYNAMGWYRQAPGKERELVASISYSGGSTYYADSVKGRFTISRDTAKNTVYLQMNSLKPEDTAVYYCNARFYWRWHTAYDYWGQGTQVTVSS | high polyreactivity
QVQLVEAGGRLVQAGGSLRLSCAASGITFTYYAMGGYRQPPGKDMELVAAISWSGGSTDYADSVKGRFTISRDNAKNTVYLQMNSLKPEDTAFYYCAATFSRFAYYYWGQGTPVTVSS | high polyreactivity
QVQLVEAGRGLVHAGCSLRLSCASSGNIFANYSMGWYRQAPGKERELVAAIRWSASRTYYADSVKGRFTISRDNAMNTVYLQMNSLKPEDTAVYYCAATIDTLWDYYYDYWGQGSQVTVSS | high polyreactivity
QVQLVELGGGLVQAGGILRLSCAASGSIFSWNDMGWYRQAPGKERELVAAITSGGSTYYADSVKGRFTISRDNAKNTVYLQMNSLKPEDTAVYYCAAGQDLHDFDYWGQGTQVTVSS | low polyreactivity
QVQLVELGGGLVQAGGSLRLSCAASGSTFEVYAMGWYRQAPGKERELVAVINVSDGSTYYADSVKGRFTISRDNAKNTVYLQMNSLKPEDTAVYYCAAYRKGKLRMEYWGQGTQVTVSS | low polyreactivity
QVQLVERGGGLVQAGGSLRLSCAASGRIFYVNTMGCYRQAPGKERELVATISSAASTNYADSVKGRFTISRDHAKNTVYLQMNSLKPEETAVYYCNAALYKEYYYWGQGTQVTVSS | low polyreactivity
QVQLVESAAGLVQAGASLRLSCAASGRTSTQNAMGWYRQAPGKERELVAAITTGGGSTYYADSVKGRFTISRDNAKYTVYLQMNSLKPEDTAVYYCAARTPQRSEWTQYGYWGQGTQVTVSS | low polyreactivity
QVQLVESAAGLVQAGGSLRLSCAASGITFFQYTMGWYRQAPGKERELVAAISTSGARTYYADSVKGRFTISRDNAKNTVYLQMNSLKPEDTAVYYCAARTWRRPYYRPRYEYWAQGTQVTVSS | high polyreactivity
QVQLVESAAGLVQAGGSLRLSCAASGRTFQYNAIGWYRQAPGKETELVAAISSSGGSTYYADSVKGRFTISRDNAKNTVYLQLNSLKPEDTAVYYCNAYSQSWNFYGDGDYWGQGTQVTVSS | low polyreactivity
QVQLVESAAGLVQAGGSLRLSGAASGRIFRYYAMGCYRQAPGKEREFVAGITWSGGRTYYADSVKGRFTISRANAKNTVYLQMNTLKREDTAVYYCAADGWGYSFQWQDHDYWGQGTQVTVSS | low polyreactivity
QVQLVESAGGGVQAGGSLRLSCPASGIIFVPNTMGWYRQAPGKEREFVASISRRGGNTNYADSVKGRFTISRDNAKNTVYLQMNSLKPEDTAVYYCAKYSSSEGKYDYWGQGTQVTVSS | high polyreactivity

Sequence | polyreactivity (PSR sort gate)
QVQLVESAGGIVQAGGSLRLRCAASGRTVVNSMGWYRQAPGKERELVAAISTNGGRTYYADSVKWRFTISRDNAKNTVYLQMNSLKPEDTAVYYCAKVLGIRPTYYYWGQGYQVTVSS | high polyreactivity
QVQLVESAGGLDQAGGSLPLSCAASGRIFRYNAMGWYRQAPGKERELVSAITWNGASTFYADSVKGRFTISRDNAKNSVYLLMNSLKPEDTAVYYCAYVRDFSGYWLWSYNLYDYWGQGTKVTVSS | high polyreactivity
QVQLVESAGGLDQAGGSLRLSCAASGFTFSVYVMGWYRQAPGKERELVASISKRGGSTTYADSVKGRFTISRDNAKNTVYLQMNSLKPEDTAVYYCAALGPGYYWGQGTQVTVSS | high polyreactivity
QVQLVESAGGLGQAGGSLRLSCAASGRIIVRNTMGWYRQAPGKDRELVARITGRGGTTYYADSVKGRFTISRDYAKNPVYFQMNSLKPEDTADYYCKAGKYLRLDPVGPNYSRKYGYWGQGTQVTVSS | low polyreactivity
QVQLVESAGGLLQTGGSLRLSCAASGRTLWYNAMGWYRQAPGKERELVAAISSGGSTNYADSVKGRFTISRDNAKHTVYLQMNSLKPEDTAVYYCAAWLAYSSRYGYWGQGTQVTVSS | low polyreactivity
QVQLVESAGGLVKAGGSLRLSCAAYGSTFSYYTMGWYRQAPGKERELVAAITRRGDSTYADSVKGRFTISRDNAKNTVYLQMNSLKPEDTAVYYCAADASVGVSGMDYWGQGTQVTVSS | low polyreactivity
QVQLVESAGGLVLAGGSLRLSCAASGYTVVRYAMGWYRQEPGKERELVAAISRSGGSTYYADSVKGRFTISRDNANNTVYLQMNSLNPEDTAVYYCNAYPYSYYDYDYWGQGTQVTVSS | high polyreactivity
QVQLVESAGGLVQAGARLRLSCAASGFTFQYYALGWYRQAPGKERELVATISTSGGNTYYADSVKGRFTITRDNAKNTVYLQMNSLKPEDTAVYYCAARRYRASSRGYGYWGQGTQVTVSS | high polyreactivity
QVQLVESAGGLVQAGGCLRLSCAACGSIFLYNAMGWYRQAPVKERELVAGITGGGGTNYADSVKGRFTISRDNAKNTVYLQMNSLKPEDTAVYYCAADPSGQFPYSYYNYDYDYWGQGTQVTVSS | low polyreactivity
QVQLVESAGGLVQAGGILRLSCAASGRIFPYYDMGWYRQAPGKERELVAAITWNGGSTYYADSVKGRFTISRDNANNTVYLQMNSLKPEDTAVYYCAVEPYYYGEDYWGQGTQVTVSS | low polyreactivity
QVQLVESAGGLVQAGGRLRLSCAASGSTFGIYAMGWYRQAPGKERELVAAISSGGSTNYADSVKGRFTISRDNAKNTVYLQMNSLKPEDTAVYYCAVESVYEYGGYVDSAYDYWGQGTQVTVSS | low polyreactivity
QVQLVESAGGLVQAGGSHRLSCAASGNIFYYYRMGWYRQEPGKESEFVAAISTSGGNTYYADSVKGRFTISRDNAKNTVYLQINSLKPEDTAVYYCAADDWPWGDAGVDYWGQGTQVTVSS | low polyreactivity
QVQLVESAGGLVQAGGSHRLSCPASGSIFDYNPMGWYTQAPGKESELVAAITSGGSTNYADSVKGRFTISRDNAKNTVYLHMNSLKPEDTAVYYCAADHDYYPSNLDFWGQGTQVTVSS | low polyreactivity
QVQLVESAGGLVQAGGSLRLICAASGSIFVKYAMGWYRQATGKERELVAAISRSGGSTYYADSVKGRFTISRDNAKNTVYLQMTSLKPEDTAVYYCAADGFRGDMYYWGQGTQVTVSS | low polyreactivity
QVQLVESAGGLVQAGGSLRLICAASGSIVASYPKGWYRQAPGKERELVAAISDGGGRTYYADSVKGRFTISRDNAKNTVYLQMNSLKPEDTAVYYCAAYAVYTYRRARVYWGQGTQVTVSS | high polyreactivity
QVQLVESAGGLVQAGGSLRLICDASGSTFGYYAIGWYRQAPGKEREVVAVINKSGGRTYYADSVKGRFTISRDNAKNTVYLQMNSLNPVDTAVYFCATRVTSTRHDYWGQGTQVTVSS | high polyreactivity
QVQLVESAGGLVQAGGSLRLSCAASGIILYYYAMGWYRHAPGKERELVAAISSGGNTYYADSVKGRFTISRDNAKNTVYLQMNSLKPEDTAVYYCAAVTVIGGEYDYWGQGTQVTVSS | low polyreactivity
QVQLVESAGGLVQAGGSLRLSCAASGLTFSIYALGWYRQAAGKERELVAAITGRGGRTYYADSVKGRFPISRDNAKNTVYLQMNTLKPDDTAVYYCAARYRGTDFDYWGQGTQVTVSS | high polyreactivity
QVQLVESAGGLVQAGGSLRLSCAASGLTFVRYGMGWYRQAPGKERELVAAITSDDSTYYADSVKGSFTISRDNAQNTVYLQMNSLNPEDTAVYYCAARYTLYDTGESSRTYTGFIYWGLGTQVTVSS | low polyreactivity
QVQLVESAGGLVQAGGSLRLSCAASGNFGYNAIAWNRQAPGKETELVAAITSSGTSTYYADSVKGRLTISRDNAKNTVYLQMNSLKPEDTAVYYCAALPSGTWTGFGYWGQGTQVTVSS | low polyreactivity
QVQLVESAGGLVQAGGSLRLSCAASGRIFNSNAMGWYRQAPGKERELVASITSRGDSTFYADSVKGRFTISRDTAKNTVYLQMNSLKPEDTAVYYCAANGLYYRTPPVYSYDYWGQGTQVTVSS | low polyreactivity
